Read-outs that look alike come from different tables or passages of the source.
T1: mouse B7-H4 expressed on cells (mouse, UniProt Q7TSP5 25-257)
T1 construct: also called cellular mB7-H4; mB7-H4/CT26
T1 sequence: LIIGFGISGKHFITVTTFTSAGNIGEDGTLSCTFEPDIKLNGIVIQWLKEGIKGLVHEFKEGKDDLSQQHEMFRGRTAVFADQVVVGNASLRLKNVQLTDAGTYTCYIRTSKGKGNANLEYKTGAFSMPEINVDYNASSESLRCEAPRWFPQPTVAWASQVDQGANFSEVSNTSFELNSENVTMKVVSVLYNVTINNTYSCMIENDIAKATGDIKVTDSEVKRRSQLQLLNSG

T2: mB7-H4 (soluble mouse B7-H4, construct not named) (mouse, UniProt Q7TSP5 25-257, limits assumed)
T2 sequence: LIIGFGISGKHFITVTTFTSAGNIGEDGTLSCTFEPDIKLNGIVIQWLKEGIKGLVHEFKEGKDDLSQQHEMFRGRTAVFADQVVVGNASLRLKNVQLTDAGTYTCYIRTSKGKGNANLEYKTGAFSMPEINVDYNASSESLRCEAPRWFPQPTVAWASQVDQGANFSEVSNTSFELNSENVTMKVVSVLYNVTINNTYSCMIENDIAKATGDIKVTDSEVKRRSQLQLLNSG

T3: human B7-H4-his (human, UniProt Q7Z7D3 25-259)
T3 construct: also called hB7-H4-his; hB7-H4 his; not shown: his tag
T3 sequence: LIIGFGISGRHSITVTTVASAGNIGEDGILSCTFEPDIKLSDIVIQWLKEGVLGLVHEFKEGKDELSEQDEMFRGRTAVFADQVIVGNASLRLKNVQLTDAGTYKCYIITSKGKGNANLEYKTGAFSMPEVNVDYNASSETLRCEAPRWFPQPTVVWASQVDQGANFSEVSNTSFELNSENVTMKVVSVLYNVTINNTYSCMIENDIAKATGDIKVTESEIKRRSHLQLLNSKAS

T4: mouse B7-H4-his (mouse, UniProt Q7TSP5 25-257)
T4 construct: also called mB7-H4-his; mB7-H4-His; not shown: his tag
T4 sequence: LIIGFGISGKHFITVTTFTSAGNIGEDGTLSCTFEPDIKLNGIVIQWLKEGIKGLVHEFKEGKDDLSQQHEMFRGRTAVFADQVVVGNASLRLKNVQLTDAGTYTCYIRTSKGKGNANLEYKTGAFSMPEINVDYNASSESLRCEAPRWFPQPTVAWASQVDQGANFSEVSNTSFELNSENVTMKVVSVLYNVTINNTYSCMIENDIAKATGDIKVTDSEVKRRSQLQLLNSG


How the values were obtained:
[1] = biological target: T1, mouse B7-H4 expressed on cells; experiment: flow cytometry, mB7H4 stable cells (CHO)
Procedure: (§1) ELISA experiments were performed to determine binding to hB7-H4-Fc (FIG. 4A), hB7-H4-his (FIG. 4B), hB7-H4 IgV domain (FIG. 4C), and mB7-H4 IgV domain (FIG. 4D). Flow cytrometry experiments were performed to determine binding to CHO cells expressing hB7-H4 (FIG. 4E) or mB7-H4 (FIG. 4F). […] A cross-reactive IgV binding antibody was used as a control.
(§2) Cells were harvested, washed once, and then re-suspended to the concentration of 1×10⁶ cells/ml in ice cold FACS Buffer. 25 μl of cell suspension was added to each well of a 96-well round-bottom microliter plate. Serially diluted antibodies or fusion proteins were added to each well and incubated for 1 hour at 4° C. Cells were washed three times by centrifugation at 1500 rpm for 5 minutes, and then stained with secondary antibody (1:200 dilution) for 30 min at 4° C. in the dark. Cells were washed once, re-suspended in 100 μl PBS buffer and then analyzed using Guava Flow Cytometry EasyCyte system.

mouse B7-H4-Fc [2] = biological target: T5, mouse B7-H4-Fc (mouse; human); experiment: ELISA, coated mB7-H4-Fc (title on the sheet: Binding to mB7H4-Fc)
T5 construct: also called mB7-H4-Fc; mB7-H4-hFc
Procedure: as §1
(§3) About 1-2 μg/ml of human or mouse B7-H4-Fc (or his-tagged) was immobilized on ELISA plates (Immuno 2HB, Thermo scientific, cat #3455) at 4° C. overnight. After blocking the plates with 3% PBS+milk, serial diluted antibodies were added to the blocked plates and incubated at RT for 1-1.5 h. After washing the plates with PBS-T (0.05%), horse radish peroxidase (HRP)-conjugated antibody targeting the hFab was added to the plate. Signals were developed by adding 3,3′,5,5′-Tetramethylbenzidine (TMB (followed 1N of H₂SO₄ to stop the reaction. The OD at 450 nm was read by ELISA plate reader (Infinite M1000 from TECAN). GraphPad from Prism was used to plot OD450 vs. antibody concentration curve and to calculate the EC50 values.

human B7-H4-Fc [3] = biological target: T6, human B7-H4-Fc (human); experiment: ELISA, coated hB7-H4-Fc
T6 construct: also called hB7-H4-Fc; hB7-H4 Fc
Procedure: as §1, §3

[4] = biological target: T7, IgV domain of mouse B7-H4-Fc (mouse; human); experiment: ELISA, coated mB7-H4 IgV domain
T7 construct: also called mB7-H4 IgV domain
Procedure: as §1, §3

[5] = biological target: T2, mB7-H4 (soluble mouse B7-H4, construct …); experiment: summary of ELISA and flow cytometry
human B7-H4-his [6] = biological target: T3, human B7-H4-his; experiment: SPR (Biacore)
human B7-H4-Fc [7] = biological target: T6, human B7-H4-Fc; experiment: SPR (Biacore)
mouse B7-H4-his = biological target: T4, mouse B7-H4-his; experiment: SPR (Biacore)
mouse B7-H4-Fc [8] = biological target: T5, mouse B7-H4-Fc; experiment: ELISA, coated mB7-H4-Fc
Procedure: (§4) ELISA experiments were performed to determine binding to hB7-H4-Fc (FIG. 5A), hB7-H4-his (FIG. 5B), mB7-H4-Fc domain (FIG. 5C), hB7-H4 IgV domain (FIG. 5D), and hB7-H4 IgC domain (FIG. 5E). Flow cytrometry experiments were performed to determine binding to CHO cells expressing hB7-H4 (FIG. 5F) or mB7-H4 (FIG. 5G). […] A cross-reactive IgV binding antibody and an IgC binding antibody were used as controls.
as §3

human B7-H4-his [9] = biological target: T3, human B7-H4-his; experiment: ELISA, coated hB7-H4-his
Procedure: as §3

[10] = biological target: T8, IgV domain of human B7-H4-Fc (human); experiment: ELISA, coated hB7-H4 IgV domain
T8 construct: also called hB7-H4 IgV domain
Procedure: as §4, §3

[11] = biological target: T9, IgC domain of human B7-H4-Fc (human); experiment: ELISA, coated hB7-H4 IgC domain
T9 construct: also called hB7-H4 IgC domain
Procedure: as §4, §3

human B7-H4-Fc [12] = biological target: T6, human B7-H4-Fc; experiment: ELISA, coated hB7-H4-Fc; remark: listed apart in the source
Procedure: as §4, §3

[13] = biological target: T1, mouse B7-H4 expressed on cells; experiment: flow cytometry, CHO cells expressing mB7-H4
Procedure: as §4, §2

T6 sequence (chain, as listed by the source): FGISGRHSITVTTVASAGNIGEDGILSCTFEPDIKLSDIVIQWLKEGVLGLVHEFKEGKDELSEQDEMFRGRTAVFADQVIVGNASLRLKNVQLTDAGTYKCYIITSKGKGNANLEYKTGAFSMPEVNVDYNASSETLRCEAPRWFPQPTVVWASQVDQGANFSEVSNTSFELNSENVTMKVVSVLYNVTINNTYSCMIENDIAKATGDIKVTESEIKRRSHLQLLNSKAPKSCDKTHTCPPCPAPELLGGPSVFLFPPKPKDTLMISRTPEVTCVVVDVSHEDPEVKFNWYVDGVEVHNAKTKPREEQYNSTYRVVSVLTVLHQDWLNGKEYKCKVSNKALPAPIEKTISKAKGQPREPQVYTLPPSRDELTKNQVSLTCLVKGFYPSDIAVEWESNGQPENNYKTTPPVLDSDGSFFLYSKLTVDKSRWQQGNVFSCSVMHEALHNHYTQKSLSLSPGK
T5 sequence (chain, as listed by the source): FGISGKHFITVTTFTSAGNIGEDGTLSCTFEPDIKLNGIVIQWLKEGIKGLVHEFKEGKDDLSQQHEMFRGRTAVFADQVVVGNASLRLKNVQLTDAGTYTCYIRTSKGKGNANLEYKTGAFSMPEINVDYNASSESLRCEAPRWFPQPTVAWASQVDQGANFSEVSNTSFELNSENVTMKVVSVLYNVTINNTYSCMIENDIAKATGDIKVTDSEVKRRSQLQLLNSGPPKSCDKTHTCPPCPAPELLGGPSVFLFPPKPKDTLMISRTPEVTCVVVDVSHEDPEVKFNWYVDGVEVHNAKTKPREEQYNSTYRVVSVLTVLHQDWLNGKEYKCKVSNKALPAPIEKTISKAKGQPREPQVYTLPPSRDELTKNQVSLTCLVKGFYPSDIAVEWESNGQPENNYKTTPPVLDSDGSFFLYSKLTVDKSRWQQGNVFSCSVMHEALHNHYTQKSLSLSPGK
T7 sequence (chain, as listed by the source): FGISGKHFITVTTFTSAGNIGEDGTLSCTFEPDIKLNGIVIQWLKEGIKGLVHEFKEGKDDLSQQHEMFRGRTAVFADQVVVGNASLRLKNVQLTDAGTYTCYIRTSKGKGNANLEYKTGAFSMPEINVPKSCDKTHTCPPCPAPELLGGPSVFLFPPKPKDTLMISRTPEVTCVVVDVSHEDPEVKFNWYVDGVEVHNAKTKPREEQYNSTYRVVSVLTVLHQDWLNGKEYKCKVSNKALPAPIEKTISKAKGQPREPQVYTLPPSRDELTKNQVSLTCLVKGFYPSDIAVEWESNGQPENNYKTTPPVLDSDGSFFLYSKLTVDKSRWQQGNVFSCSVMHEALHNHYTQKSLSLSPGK
T9 sequence (chain, as listed by the source): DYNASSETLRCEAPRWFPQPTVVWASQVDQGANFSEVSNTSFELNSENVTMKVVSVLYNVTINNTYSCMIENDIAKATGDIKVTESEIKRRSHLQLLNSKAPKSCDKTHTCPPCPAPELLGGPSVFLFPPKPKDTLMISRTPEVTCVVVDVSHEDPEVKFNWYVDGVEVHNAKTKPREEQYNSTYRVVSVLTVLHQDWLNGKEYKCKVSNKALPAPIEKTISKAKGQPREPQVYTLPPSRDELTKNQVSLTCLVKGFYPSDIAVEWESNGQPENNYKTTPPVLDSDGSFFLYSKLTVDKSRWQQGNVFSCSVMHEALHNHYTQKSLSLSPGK
T8 sequence (chain, as listed by the source): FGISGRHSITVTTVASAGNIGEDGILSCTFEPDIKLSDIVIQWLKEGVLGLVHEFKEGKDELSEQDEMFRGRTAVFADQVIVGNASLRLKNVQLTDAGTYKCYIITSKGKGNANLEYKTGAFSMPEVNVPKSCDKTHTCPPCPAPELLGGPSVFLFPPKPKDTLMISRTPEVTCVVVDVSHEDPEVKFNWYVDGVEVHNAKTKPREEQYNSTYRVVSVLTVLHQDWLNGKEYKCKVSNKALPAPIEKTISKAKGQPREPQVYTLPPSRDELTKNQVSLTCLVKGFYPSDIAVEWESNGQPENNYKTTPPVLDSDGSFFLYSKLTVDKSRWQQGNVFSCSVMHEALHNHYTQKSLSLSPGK

binding result [1] | EC50 (read off the curve) (human B7-H4-Fc [3]) [µg/mL] | binding result [4] | binding result [5] | Kd (human B7-H4-his [6]) [nM] | Kd (human B7-H4-Fc [7]) [nM] | binding result (mouse B7-H4-his) | binding result (mouse B7-H4-Fc [8]) | EC50 (read off the curve) (human B7-H4-his [9]) [nM] | EC50 (read off the curve) [10] [nM] | EC50 (read off the curve) (human B7-H4-Fc [12]) [nM] | Binder | binding result (mouse B7-H4-Fc [2]) | binding result [11] | binding result [13]
no binding | ~0.01 | no binding | no binding | 4 | 2.86 | no binding | – | – | – | – | 4H6/4H6 (antibody, human IgG1, V domains shown) VH: EVQLLESGGGLVQPGGSLRLSCAASGFTFSSYGMHWVRQAPGKGLEWVSGISGSGGSTYYADSVKGRFTISRDNSKNTLYLQMNSLRAEDTAVYYCARTQWRASLDPWGQGTLVNVSS VL: DIQMTQSPSSLSASVGDRVTITCRASQDISYWLAWYQQKPGKAPKLLIYGASTLQSGVPSRFSGSGSGTDFTLTISSLQPEDFATYYCQQTTMSPYTFGQGTKVEIK | no binding (tested: log 0.3 ug/ml (about 2 ug/ml)) | – | –
– | – | – | no binding | – | – | – | no binding (tested: log 1 nM (10 nM)) | ~0.06 | ~0.07 | ~0.07 | 9H2/9H2 (antibody, V domains shown) VH: QVQLVQSGAEVKKPGSSVKVSCKASGGTFSTYAINWVRQAPGQGLEWMGGINPMFGTARYAQKFQGRVTITADESTSTAYMELSSLRSEDTAVYYCARGRLHRHWGQGTLVTVSS VL: not shown | – | no binding (tested: log 0.3 ug/ml (about 2 ug/ml)) | no binding (tested: log 2.3 nM (about 200 nM))
